{
  "source": "patent US20220332804A1",
  "about": "(CSL INNOVATION, published 2022)",
  "binders": {"B1": {"name": "RF16-226 (antibody, human IgG4 S228P, lambda)", "heavy": "not shown", "light": "SYELTQPPSVSVSPGQTARITCSGDALTSKYVAWYQQKSGLAPLLVIYEDTRRPSGIPAKFSGSSSGSVATLTISGAHGDDEADYYCYSTDASGHQRVFGGGTKLTVLSQPKAAPSVTLFPPSSEELQANKATLVCLISDFYPGAVTVAWKADGSPVKAGVETTKPSKQSNNKYAASSYLSLTPEQWKSHRSYSCQVTHEGSTVEKTVAPTECS", "notes": "pH-dependent anti-C2 antibody from a phage display library; also called WT"}},
  "assay_in_all_cases": "SPR, KD relative to WT C2;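 note: biacore SPR at 37 °C, anti-C2 mAbs captured via immobilised goat anti-human IgG, C2 alanine or serine surface mutants as analytes, 1:1 model fitted, double-referenced sensograms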",
  "key": {"human C2 M452A": {"biological_target": "T1, human C2 M452A (human, UniProt P06681 21-752)", "T1 sequence": "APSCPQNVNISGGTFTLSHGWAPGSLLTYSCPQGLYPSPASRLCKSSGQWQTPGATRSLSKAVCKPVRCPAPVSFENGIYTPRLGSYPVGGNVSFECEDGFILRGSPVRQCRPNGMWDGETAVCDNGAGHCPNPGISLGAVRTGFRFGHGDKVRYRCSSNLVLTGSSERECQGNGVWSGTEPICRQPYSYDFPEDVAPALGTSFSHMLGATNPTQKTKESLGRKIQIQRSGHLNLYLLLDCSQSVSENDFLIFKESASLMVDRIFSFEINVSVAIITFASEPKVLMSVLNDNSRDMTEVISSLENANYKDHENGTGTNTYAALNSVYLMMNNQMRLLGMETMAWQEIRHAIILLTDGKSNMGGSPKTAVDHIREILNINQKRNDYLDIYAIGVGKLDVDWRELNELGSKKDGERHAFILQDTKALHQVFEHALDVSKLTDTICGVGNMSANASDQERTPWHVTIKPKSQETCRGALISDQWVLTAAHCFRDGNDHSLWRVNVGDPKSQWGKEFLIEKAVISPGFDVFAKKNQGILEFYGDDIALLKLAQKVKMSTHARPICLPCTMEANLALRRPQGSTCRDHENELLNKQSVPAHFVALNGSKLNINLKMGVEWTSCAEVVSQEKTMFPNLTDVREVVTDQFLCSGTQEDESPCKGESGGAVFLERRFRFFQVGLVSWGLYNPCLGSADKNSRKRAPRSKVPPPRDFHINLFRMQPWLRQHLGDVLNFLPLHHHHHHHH"}, "human C2 G530A": {"biological_target": "T2, human C2 G530A (human, UniProt P06681 21-752)", "T2 sequence": "T1 sequence with A432M, G510A"}, "human C2 R493A": {"biological_target": "T3, human C2 R493A (human, UniProt P06681 21-752)", "T3 sequence": "T1 sequence with A432M, R473A"}, "human C2 V418A": {"biological_target": "T4, human C2 V418A (human, UniProt P06681 21-752)", "T4 sequence": "T1 sequence with V398A, A432M"}},
  "note": "Where a chain is given by its changes, count along the chain named.",
  "data": [
    {"binder": "B1", "values": [
      {"measurement": "Fold diff", "setting": "human C2 M452A", "result": 0, "unit": "fold"},
      {"measurement": "Fold diff", "setting": "human C2 G530A", "result": 2, "unit": "fold"},
      {"measurement": "Fold diff", "setting": "human C2 R493A", "result": 2, "unit": "fold"},
      {"measurement": "Fold diff", "setting": "human C2 V418A", "result": 1, "unit": "fold"}
    ]}
  ]
}
